Test results from patent US7740850B2, “PDGFRβ-specific antibodies” (ImClone, LLC, priority 2007, dated 2010).

What was measured:
m5β = molecular target: T1, m5β (Mus musculus, UniProt P05622); experiment: Epitope mapping; format: binding; conditions: ✓ / X, key not given
T1 sequence (P05622 32-531 limits assumed): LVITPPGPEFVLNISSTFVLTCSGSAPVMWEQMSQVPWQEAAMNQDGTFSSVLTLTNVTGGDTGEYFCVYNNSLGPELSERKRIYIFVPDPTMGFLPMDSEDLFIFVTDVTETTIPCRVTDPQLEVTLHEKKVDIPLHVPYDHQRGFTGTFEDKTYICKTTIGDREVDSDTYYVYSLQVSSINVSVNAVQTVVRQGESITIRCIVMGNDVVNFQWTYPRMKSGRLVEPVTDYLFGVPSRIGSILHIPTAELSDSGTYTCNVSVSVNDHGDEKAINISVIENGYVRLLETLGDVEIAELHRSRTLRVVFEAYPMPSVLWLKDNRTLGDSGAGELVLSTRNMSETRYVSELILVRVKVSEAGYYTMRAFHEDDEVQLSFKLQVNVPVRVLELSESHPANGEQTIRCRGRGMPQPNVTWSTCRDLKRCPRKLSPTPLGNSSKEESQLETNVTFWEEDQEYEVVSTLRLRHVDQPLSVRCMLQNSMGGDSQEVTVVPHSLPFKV
Method: (§1) 2C5 binds to domain 1 (D1) and domain 2 (D2) of PDGFRβ. Various chimeric constructs of PDGFRβ and PDGFRα were first made by domain swapping, starting from N-terminus to C-terminus with PDGFRβ domain(s) replacing PDGFRα domain(s). The PDGFRβ/α chimera were tested for the ability of 2C5 binding. Shorter versions of PDGFRβ, including D1D2, D2D3 and D1D2D3, were then made to confirm the 2C5 binding domains on PDGFRβ.

[1] = system: Akt and p44/42 MAP kinase in Caki-1 cells; experiment: PDGF-BB-stimulated downstream signaling (Western blot); format: cell-based, human
Method: To study the downstream signaling, the cell lysate from the above treatment were resolved by a 4-12% NuPAGE Bis-Tris gel. Phosphorylated Akt and p44/42 mitogen-activated protein kinase (MAPK) were detected using an anti-phospho-Akt and an anti-phospho-p44/p42 MAPK and p44/p42 MAPK, respectively (eBioscience, San Diego, Calif.).
2C5 inhibits PDGF-BB-stimulated receptor phosphorylation and downstream signaling in a cell-based assay. The ability of 2C5 to block PDGFRβ phosphorylation was determined for human Caki-1 tumor cells (FIG. 7) and mouse NIH/3T3 and D122 cells lines (FIG. 8).

3β2α = experiment: Epitope mapping, PDGFRβ/α chimera; format: binding; conditions: ✓ / X, key not given
Method: as §1

4β1α = experiment: Epitope mapping, PDGFRβ/α chimera; format: binding; conditions: ✓ / X, key not given
Method: as §1

[2] = system: blood vessels and pericytes in BxPC3 tumor xenografts; experiment: Immunohistochemistry of tumor sections (CD31 / α-SMA double staining); format: in vivo, mouse; conditions: BxPC3 tumors, Day 34 post treatment
Description: FIG. 5 represents results of immunohistochemical analysis of human xenografts after treatment with 1B3, DC101, or DC101 plus 1B3. On Day 34 (BxPC3 model, panel A to C) or 50 (NCI-H460 model, panel D to F) post treatment, six mice from each group were sacrificed and tumors were processed for IHC analysis. Tumors were sectioned and double staining for both blood vessels (anti-CD31) and pericyte/SMC coverage (α-SMA, panel B and E). Five digital immunofluorescence images of tumor periphery and tumor core from each section were acquired and quantified for total CD31^+ vessels (panel A and D), α-SMA^+ vessels (panel B and E), and the percentage of dual CD31^+/α-SMA^+ over total CD31^+ vessels (panel C and F). Two different quantitation methods were used to measure the degree of vascularity of individual tumor sections: vessel density (numbers of vessels/[…]) and percentage of vessel area (% vessel area over total tumor area). For statistic analysis, two-way ANOVA followed by Fisher's LSD method was used for multiple comparisons (Sigma Stat 3.1 Systat Software, Inc., Point Richmond, Calif.). *P<0.05 compared to the saline group. Open bars, tumor periphery; solid bars, tumor core. […]
Immunofluorescence images (at 200× magnification) were acquired using EZ-C1 2.20 software through a digital camera connected to a confocal microscope (Nikon Eclipse TE2000U). Computer assisted morphologic quantification was performed using Image Pro Plus software (MediaCybernatics, Silver Spring, Md.) and analyzed from each section.
Five digital images of tumor periphery and tumor core from each section were counted for total CD31^+ vessels, α-SMA^+ vessels, mature vessels (dual CD31^+ and α-SMA^+), and the percentage of dual CD31^+/α-SMA^+ vessels over total CD31^+ vessels. Two different quantitation methods were used to measure the degree of vascularity of individual tumor sections: vessel density (numbers of vessels/[…]) and percentage of vessel area (% vessel area over total tumor area). Computer assisted morphologic quantification was performed using Image Pro Plus software. […]

Row | Molecule | binding to m5β (m5β) | inhibition of PDGF-BB-stimulated phosphorylation of Akt and p44/42 MAP kinase [1] | binding to 3β2α (3β2α) | binding to 4β1α (4β1α) | CD31^+ vessel density ([2]; 40 mg/kg three times a week) | α-SMA^+ vessel density / α-SMA staining ([2]; 40 mg/kg three times a week) | percentage of CD31/α-SMA double positive (mature) vessels over total CD31^+ vessels ([2]; versus saline)
1 | 2C5: PDGFRβ-specific human antibody binding both human and murine PDGFRβ; SEQ ID NOS in Table 1 (antibody, listed as Homo sapiens, V domains shown) VH: QVQLVQSGAEVKKPGSSVKVSCKASGGTFSSYAISWVRQAPGQGLEWMGRIIPILGIANYAQKFQGRVTITADKSTSTAYMELSSLRSEDTAVYYCARDMGSRNYYYFYWGQGTLVTVSS VL: EIVLTQSPATLSLSPGERATLSCRASQSVGRYLAWYQQKPGQAPRLLIYGASNRATGIPARFSGSGSGTDFTLTISSLEPEDFAVYYCQQRSNWPLTFGGGTKVEIK | ✓ | potently inhibited | ✓ | ✓ |  |  | 
2 | 1B3: human anti-mouse PDGFRβ antibody from Fab phage display library, human κ/γ1 constant regions; SEQ ID NOS in Table 1 (antibody, listed as Homo sapiens, V domains shown, human kappa/gamma1 constant regions) VH: QVQLQESGGGLVKPGGSLRLSCAASGFTFSSYSMNWVRQAPGKGLEWVSSISSSSSYIYYADSVKGRFTISRDNSKNTLYLQMNSLRAEDTAVYYCAKGGRPLLVFDFWGQGTLVTVS VL: EIVMTQSPGTLSLSPGERATLSCRASQSVSSSYLAWYQQKPGQAPRLLIYDASKRATGIPARFSGSGSGTDFTLTISTLESEDSAVYYCQQRGYWPPITFGQGTRLEIKR |  |  |  |  | no significant effect on overall tumor vessel density | reduced the α-SMA staining in tumor periphery | reduced percentage
